In US20250145694A1 (GUANGDONG FEIPENG BIOLOGICAL, published 2025):
Residue numbers refer to the chain shown, from its start.

B1: Mutation 1-1 (antibody)
heavy: EVQMVESGGGLLKPGGSLKLSCAASGFTFSNYAMSWVRQTPEKRLEWVATISSGGSYSFYPDSVKGRFTISRDNAKNTLYLQMLSLRSEDTAMYYCARRDNYYGSSFMDYWGQGSSVTVSSAKTTPPSVYPLAPGSAAQTNSMVTLGCLVKGYFPEPVTVTWNSGSLSSGVHTFPAVLQSDLYTLSSSVTVPSSTWPSQTVTCNVAHPASSTKVDKKIVPRDCGCKPCICTVPEVSSVFIFPPKPKDVLTITLTPKVTCVVVDISKDDPEVQFSWFVDDVEVHTAQTKPREEQFNSTFRSVSELPIMHQDWLNGKEFKCRVNSAAFPAPIEKTISKTKGRPKAPQVYTIPPPKEQMAKDKVSLTCMITNFFPEDITVEWQWNGQPAENYKNTQPIMDTDGSYFVYSKLNVQKSNWEAGNTFTCSVLHEGLHNHHTEKSLSHSPG
light: DIQMTQTSSSLSASLGDRVTISCRASQEITNYLNWYQQKPDGTIKLLIYYTSRIHSGVSSRFSGSGSGTDYSLTISNLEQEDIATYFCQQGHTLPLTFDTGTKLELKRADAAPTVSIFPPSSEQLTSGGASVVCFLNNFYPKDINVKWKIDGSERQNGVLNSWTDQDSKDSTYSMSSTLTLTKDEYERHNSYTCEATHKTSTSPIVKSFNRNEC
notes: assembled FR/CDR/constant
B2: Mutation 1-14 (antibody)
heavy: B1 heavy with F29Y, Y103F, S106T
light: B1 light with E28D, I54L, L94I
notes: assembled FR/CDR/constant
B3: Mutation 1-23 (antibody)
heavy: B1 heavy with F59Y, Y103P, S106T
light: B1 light with L94I
notes: assembled FR/CDR/constant
B4: Mutation 1-9 (antibody)
heavy: B1 heavy with S106T
light: B1 light with E28D, I54L, H92N
notes: assembled FR/CDR/constant
B5: Mutation 1-11 (antibody)
heavy: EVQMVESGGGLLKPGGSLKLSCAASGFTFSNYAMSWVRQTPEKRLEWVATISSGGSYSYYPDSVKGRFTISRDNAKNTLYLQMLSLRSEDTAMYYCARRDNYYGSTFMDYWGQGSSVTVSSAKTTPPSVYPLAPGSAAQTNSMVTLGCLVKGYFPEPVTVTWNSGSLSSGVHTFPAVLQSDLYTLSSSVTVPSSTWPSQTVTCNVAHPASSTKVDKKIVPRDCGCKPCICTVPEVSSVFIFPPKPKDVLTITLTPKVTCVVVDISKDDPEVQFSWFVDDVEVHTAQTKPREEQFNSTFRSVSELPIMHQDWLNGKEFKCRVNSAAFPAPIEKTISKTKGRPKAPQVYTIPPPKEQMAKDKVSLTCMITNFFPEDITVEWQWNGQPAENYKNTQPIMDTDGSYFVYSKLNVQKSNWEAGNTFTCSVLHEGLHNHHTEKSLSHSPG
light: B1 light with E28D, I54L, H92N, L94I
notes: assembled FR/CDR/constant
B6: Mutation 1-4 (antibody)
heavy: B1 heavy with F29Y, F59Y, Y103F, S106T
light: B1 light with H92N
notes: assembled FR/CDR/constant; Same printed sites as Mutation 1-40
B7: Mutation 1-29 (antibody)
heavy: B1 heavy with Y103F
light: B1 light with H92N, L94I
notes: assembled FR/CDR/constant
B8: Mutation 1-7 (antibody)
heavy: B1 heavy with F59Y, Y103F, S106T
light: B1 light with L94I
notes: assembled FR/CDR/constant
B9: Mutation 1-5 (antibody)
heavy: B1 heavy with Y103F
light: B1 light
notes: assembled FR/CDR/constant
B10: Mutation 1-15 (antibody)
heavy: B1 heavy with F59Y, Y103F
light: B1 light with H92N
notes: assembled FR/CDR/constant
B11: Mutation 1-13 (antibody)
heavy: B1 heavy with Y103P
light: B1 light with H92N, L94I
notes: assembled FR/CDR/constant
B12: Mutation 1-10 (antibody)
heavy: B1 heavy with F29Y
light: B1 light with E28D
notes: assembled FR/CDR/constant
B13: Mutation 1-6 (antibody)
heavy: B1 heavy with F29Y
light: B1 light with E28D, I54L, H92N, L94I
notes: assembled FR/CDR/constant
B14: Mutation 1-24 (antibody)
heavy: B1 heavy with F29Y, F59Y, Y103F, S106T
light: B1 light with L94I
notes: assembled FR/CDR/constant
B15: Mutation 1-12 (antibody)
heavy: B1 heavy with F29Y, F59Y, Y103P, S106T
light: B1 light with I54L
notes: assembled FR/CDR/constant
B16: Mutation 1-26 (antibody)
heavy: B1 heavy with F29Y, S106T
light: B1 light
notes: assembled FR/CDR/constant
B17: Mutation 1-18 (antibody)
heavy: B1 heavy with F29Y, Y103P
light: B1 light with H92N
notes: assembled FR/CDR/constant
B18: Mutation 1-31 (antibody)
heavy: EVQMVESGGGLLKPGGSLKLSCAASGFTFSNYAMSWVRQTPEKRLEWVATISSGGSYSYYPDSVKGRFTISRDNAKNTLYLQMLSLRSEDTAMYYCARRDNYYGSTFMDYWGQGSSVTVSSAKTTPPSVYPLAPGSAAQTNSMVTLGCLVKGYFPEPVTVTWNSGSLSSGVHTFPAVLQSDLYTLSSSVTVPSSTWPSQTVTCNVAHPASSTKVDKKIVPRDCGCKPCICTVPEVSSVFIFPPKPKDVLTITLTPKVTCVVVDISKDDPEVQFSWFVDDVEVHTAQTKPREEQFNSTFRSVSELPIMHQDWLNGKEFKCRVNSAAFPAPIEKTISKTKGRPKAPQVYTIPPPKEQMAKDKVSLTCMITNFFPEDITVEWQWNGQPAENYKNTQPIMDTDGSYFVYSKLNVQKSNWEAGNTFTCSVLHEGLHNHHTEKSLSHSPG
light: B1 light with E28D, H92N
notes: assembled FR/CDR/constant
B19: Mutation 1-17 (antibody)
heavy: B1 heavy
light: B1 light with E28D, I54L, L94I
notes: assembled FR/CDR/constant
B20: Mutation 1-30 (antibody)
heavy: B1 heavy with F29Y, Y103F
light: B1 light with I54L, L94I
notes: assembled FR/CDR/constant
B21: Mutation 1-2 (antibody)
heavy: B1 heavy with F29Y, Y103P, S106T
light: B1 light with H92N, L94I
notes: assembled FR/CDR/constant
B22: Mutation 1-21 (antibody)
heavy: B1 heavy with S106T
light: B1 light with E28D
notes: assembled FR/CDR/constant
B23: Mutation 1-28 (antibody)
heavy: B1 heavy with F29Y, F59Y, Y103P, S106T
light: B1 light with E28D, I54L
notes: assembled FR/CDR/constant
B24: Mutation 1-22 (antibody)
heavy: B1 heavy with F29Y
light: B1 light with E28D, L94I
notes: assembled FR/CDR/constant
B25: Mutation 1-19 (antibody)
heavy: B1 heavy with F59Y, Y103F, S106T
light: B1 light with I54L
notes: assembled FR/CDR/constant
B26: Mutation 1-8 (antibody)
heavy: B1 heavy with F29Y, F59Y, Y103F
light: B1 light with L94I
notes: assembled FR/CDR/constant
B27: Mutation 1-3 (antibody)
heavy: B1 heavy with F59Y, Y103P
light: B1 light with E28D, I54L
notes: assembled FR/CDR/constant
B28: Mutation 1-20 (antibody)
heavy: B1 heavy with F29Y, F59Y, Y103F
light: B1 light with E28D, I54L, H92N
notes: assembled FR/CDR/constant
B29: Mutation 1-25 (antibody)
heavy: B1 heavy with Y103F
light: B1 light with E28D, I54L, H92N
notes: assembled FR/CDR/constant
B30: Mutation 1-27 (antibody)
heavy: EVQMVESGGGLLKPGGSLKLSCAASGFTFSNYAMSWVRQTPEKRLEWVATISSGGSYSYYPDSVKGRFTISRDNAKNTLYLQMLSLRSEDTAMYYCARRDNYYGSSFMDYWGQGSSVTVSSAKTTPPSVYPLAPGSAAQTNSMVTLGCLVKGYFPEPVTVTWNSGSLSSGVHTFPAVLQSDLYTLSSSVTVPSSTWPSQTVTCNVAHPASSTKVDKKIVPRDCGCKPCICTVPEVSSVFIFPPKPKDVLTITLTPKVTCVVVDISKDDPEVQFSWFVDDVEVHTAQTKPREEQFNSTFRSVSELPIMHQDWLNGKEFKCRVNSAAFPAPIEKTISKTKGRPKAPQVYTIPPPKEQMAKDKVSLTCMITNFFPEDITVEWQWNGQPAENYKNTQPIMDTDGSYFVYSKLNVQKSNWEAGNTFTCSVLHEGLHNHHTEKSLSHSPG
light: B1 light with E28D, I54L, H92N, L94I
notes: assembled FR/CDR/constant

Molecular target: T1, CTNI quality control recombinant antigen (human, UniProt P19429 1-210, limits assumed)
T1 construct: Recombinant antigen produced by the applicant; also called CTNI quality control recombinant protein (antigen produced by the company); cardiac troponin I
Assay: BLI, antibody on AMC sensor, cTnI in solution
Description: With an AMC sensor, the purified antibody was diluted to 10 μg/ml with PBST, and CTNI quality control recombinant protein (antigen produced by the company) was gradient diluted with PBST to 769.2 nmol/ml, 384.6 nmol/ml, 192.3 nmol/ml, 96.2 nmol/ml, 48.1 nmol/ml, 24 nmol/ml, 12 nmol/ml, and 0 nmol/ml.

T1 sequence (P19429 whole entry): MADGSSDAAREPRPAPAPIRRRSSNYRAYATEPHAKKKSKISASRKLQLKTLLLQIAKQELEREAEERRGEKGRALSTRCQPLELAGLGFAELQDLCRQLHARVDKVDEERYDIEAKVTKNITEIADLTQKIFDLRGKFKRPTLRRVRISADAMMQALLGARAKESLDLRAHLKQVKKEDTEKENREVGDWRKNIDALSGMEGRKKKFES

Binder | Kd [nM] | koff [s⁻¹] | kon [M⁻¹ s⁻¹]
B1 | 3.47 | 0.000124 | 35800
B2 | 7.76 | 0.000498 | 64200
B3 | 4.31 | 0.000336 | 77900
B4 | 8.6 | 0.000184 | 21400
B5 | 4.4 | 4.75e-05 | 10800
B6 | 7.1 | 0.00053 | 74600
B7 | 7.59 | 0.000197 | 26000
B8 | 4.71 | 0.000186 | 39400
B9 | 0.83 | 0.000807 | 972000
B10 | 3.8 | 0.000145 | 38100
B11 | 4.12 | 0.000354 | 86000
B12 | 5.05 | 0.000346 | 68500
B13 | 9.81 | 0.000275 | 28000
B14 | 5.37 | 0.000248 | 46100
B15 | 1.52 | 0.000135 | 88600
B16 | 1.38 | 3.48e-05 | 25200
B17 | 4.4 | 0.000253 | 57500
B18 | 8.73 | 0.000744 | 85200
B19 | 9.22 | 0.000336 | 36400
B20 | 5.76 | 0.000163 | 28300
B21 | 2.43 | 0.000129 | 53200
B22 | 9.55 | 0.000632 | 66200
B23 | 3.68 | 4.31e-05 | 11700
B24 | 9.07 | 0.000312 | 34400
B25 | 8.19 | 0.000772 | 94300
B26 | 6.81 | 0.000667 | 98000
B27 | 4.58 | 5.73e-05 | 12500
B28 | 2.87 | 0.000172 | 59800
B29 | 5.36 | 0.000364 | 67900
B30 | 6.3 | 0.000501 | 79600
